Like-named read-outs stand apart in the source and are kept apart here. Where only a bound is given, the exact number is not on record here.

Results on 15 molecules are retold here after patent US11053304 (CENTIVAX, dated 2021).

Assay in all cases: SPR, scFv captured via anti-V5, RBD as analyte
In general terms: In SPR one partner is held on a chip, and binding of the other changes the refractive index at the surface.

Test [1] has as its target T1, SARS-CoV-2 Receptor Binding Domain (RBD) protein (SARS-CoV-2, UniProt P0DTC2 319-541).
For test [2], the target named is SARS-CoV-1 Receptor Binding Domain (RBD) protein (SARS-CoV-1, UniProt P59594 306-527).
For test [3], the target named is T1, SARS-CoV-2 Receptor Binding Domain …. The source holds these as a separate data set.
In test [4] the target is MERS Receptor Binding Domain (RBD) protein (MERS coronavirus, UniProt K9N5Q8 367-606).

B1: COVID19_P07_G06 (scFv, V domains shown)
VH: EVQLVESGGGLVQPGGSLRLSCAASGFTFSSYAMHWVRQAPGKGLEWVSAIGAGGGTYYADSVKGRFTISRDNSKNTLYLQMNSLRAEDTAVYYCVTNLDNSRDYFPHYFHDMDVWGQGTLVTVSS
VL: DIVMTQSPLSLPVTPGEPASISCRSSQSLLHSNGYNYLDWYLQKPGQSPQLLIYGASTRATGVPDRFSGSGSGTDFTLKISRVEAEDVGVYYCMQTLQTPRFGGGTKVEIKR
Consider B1, for which, in test [1], binding was characterised by a dissociation constant (Kd) of 1.6 nM; the koff (usually the first-order rate constant of dissociation) stood at 5.7e-05 s⁻¹; the kon (as a rule, the second-order rate constant of association) was determined as 36300 M⁻¹ s⁻¹. Also, in test [2], the binding result is recorded as “no binding (tested: up to 300 nM)”. Moreover, the Kd (commonly the constant that tells how readily two partners part at equilibrium) in test [3] was less than 50 nM. In test [4], the binding result is given as “no binding (tested: up to 300 nM)”.

B2: COVID19_P07_D08 (scFv, V domains shown)
VH: EVQLVESGGGLVQPGGSLRLSCAASGFTFRNYAMHWVRQAPGKGLEWVSAIGTGGDTYYADSVKGRFTISRDNSKNTLYLQMNSLRAEDTAVYYCVTNMDNSRDYFPHYFHDMDVWGQGTLVTVSS
VL: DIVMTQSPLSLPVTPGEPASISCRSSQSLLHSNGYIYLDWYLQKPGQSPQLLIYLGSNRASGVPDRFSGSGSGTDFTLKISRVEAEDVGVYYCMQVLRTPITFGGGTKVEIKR
Turning to B2, in test [1], binding was put at a Kd of 1.7 nM, the koff worked out at 5.7e-05 s⁻¹ and the kon is 34100 M⁻¹ s⁻¹. In test [2], the binding result is recorded as “no binding (tested: up to 300 nM)”. The binding result in test [4] was “no binding (tested: up to 300 nM)”.

B3: COVID19_P07_D04 (scFv, V domains shown)
VH: EVQLVESGGGLVQPGGSLRLSCAASGFRFSDHPMHWVRQAPGKGLEWVAVITGSGRNKFYADSVKGRFTISRDNSKNTLYLQMNSLRAEDTAVYYCVTNMDNSRDYFPHYFHDMDVWGQGTLVTVSS
VL: DIVMTQSPLSLPVTPGEPASISCRSSQSLLHRNGYNYLDWYLQKPGQSPQLLIYGASTRATGVPDRFSGSGSGTDFTLKISRVEAEDVGVYYCTQSLQTPLTFGGGTKVEIKR
With B3, in test [1], the Kd was found to be 2.3 nM, the koff stood at 5.7e-05 s⁻¹ and the kon was determined as 24400 M⁻¹ s⁻¹. Further, in test [2], the binding result was “no binding (tested: up to 300 nM)”. Further, the binding result in test [4] is on record as “no binding (tested: up to 300 nM)”.

B4: COVID19_P20_G06 (scFv, V domains shown)
VH: EVQLVESGGGLVQPGGSLRLSCAASGFTFSNSDMNWVRQAPGKGLEWVSGISGGGAGTYYADSVKGRFTISRDNSKNTLYLQMNSLRAEDTAVYYCVTYRDNSRDYFPHYFHDMDVWGQGTLVTVSS
VL: DIVMTQSPLSLPVTPGEPASISCRSSQSLVHSNGDTYLDWYLQKPGQSPQLLIYLGSIRAPGVPDRFSGSGSGTDFTLKISRVEAEDVGVYYCQQSYSTPWTFGGGTKVEIKR
Regarding B4, the equilibrium dissociation constant (Kd) is 8.95 nM in test [1] and less than 50 nM in test [3]. In addition, in test [1], the koff worked out at 0.000834 s⁻¹. This molecule also displayed a kon in test [1] of 93200 M⁻¹ s⁻¹. Moreover, the binding result in test [2] and in test [4] was “no binding (tested: up to 300 nM)” each time.

B5: COVID19_P19_B09 (scFv, V domains shown)
VH: EVQLVESGGGLVQPGGSLRLSCAASGFTFSSHTIAWVRQAPGKGLEWLSHISSSGSTTYYADSVKGRFTISRDNSKNTLYLQMNSLRAEDTAVYYCVTQRDNSRDMSPHYFHDMDVWGQGTLVTVSS
VL: DIVMTQSPLSLPVTPGEPASISCRSSQSLLDSNGFNYLDWYLQKPGQSPQLLIYLGSSRAPGVPDRFSGSGSGTDFTLKISRVEAEDVGVYYCQQSYNTPWTFGGGTKVEIKR
Take B5: the Kd was 15.9 nM in test [1] and less than 50 nM in test [3]. The molecule further had a koff in test [1] of 0.00313 s⁻¹. This molecule yielded a kon in test [1] of 197000 M⁻¹ s⁻¹. The binding result in test [2] and in test [4] was “no binding (tested: up to 300 nM)” each time.

B6: COVID19_P19_E01 (scFv, V domains shown)
VH: EVQLVESGGGLVQPGGSLRLSCAASGFTFSSYAMHWVRQAPGKGLEWVAVVSRSGGSTFYADSVKGRFTISRDNSKNTLYLQMNSLRAEDTAVYYCVTQRDNSRDYFPHYFHDMDVWGQGTLVTVSS
VL: DIVMTQSPLSLPVTPGEPASISCRSSQSLVHSNGDTYLDWYLQKPGQSPQLLIYLGSIRAPGVPDRFSGSGSGTDFTLKISRVEAEDVGVYYCQQSYSTPWTFGGGTKVEIKR
With B6, in test [1], binding was put at a Kd of 41.7 nM, the koff amounted to 0.00644 s⁻¹ and the kon came to 155000 M⁻¹ s⁻¹. For the same molecule, in test [2], the binding result is listed as “no binding (tested: up to 300 nM)”. The molecule also registered a Kd in test [3] of less than 50 nM. Besides, the binding result in test [4] is “no binding (tested: up to 300 nM)”.

B7: COVID19_P19_C03 (scFv, V domains shown)
VH: EVQLVESGGGLVQPGGSLRLSCAASGFTFSNSDMNWVRQAPGKGLEWVSRINGDGSTTGYADSVKGRFTISRDNSKNTLYLQMNSLRAEDTAVYYCVTTGDNSRDYFPHYFHDMDVWGQGTLVTVSS
VL: DIVMTQSPLSLPVTPGEPASISCRSSQSLLHSNGDTYLDWYLQKPGQSPQLLIYLGSIRAPGVPDRFSGSGSGTDFTLKISRVEAEDVGVYYCQQSYITPWTFGGGTKVEIKR
As for B7, in test [1], the Kd amounted to 35.3 nM, the koff turned out to be 0.0058 s⁻¹ and the kon amounted to 164000 M⁻¹ s⁻¹. The binding result in test [2] was “no binding (tested: up to 300 nM)”. In test [3], this molecule showed a Kd of less than 50 nM. The binding result in test [4] was “no binding (tested: up to 300 nM)”.

B8: COVID19_P19_C12 (scFv, V domains shown)
VH: EVQLVESGGGLVQPGGSLRLSCAASGFTFRNYAMHWVRQAPGKGLEWVSAVSSSGGSPYYADSVKGRFTISRDNSKNTLYLQMNSLRAEDTAVYYCVTNMDNSRDYFPHYFHDMDVWGQGTLVTVSS
VL: DIVMTQSPLSLPVTPGEPASISCRSSQSLVHSDGDNYLNWYLQKPGQSPQLLIYSGSYRASGVPDRFSGSGSGTDFTLKISRVEAEDVGVYYCMQGTHWPLTFGGGTKVEIKR
As to B8, the binding result in test [2] and in test [4] was “no binding (tested: up to 300 nM)” in each case. The same molecule returned a Kd in test [3] of less than 50 nM.

B9: COVID19_P08_H09 (scFv, V domains shown)
VH: EVQLVESGGGLVQPGGSLRLSCAASGFTFSDYALHWVRQAPGKGLEWVSGVSWNGSRTHYADSVKGRFTISRDNSKNTLYLQMNSLRAEDTAVYYCVTNMDNSRDYFPHYFHDMDVWGQGTLVTVSS
VL: not shown
B9: in test [1], the Kd was 1.1 nM, the koff amounted to 5.7e-05 s⁻¹ and the kon came to 51000 M⁻¹ s⁻¹. Moreover, the binding result in test [2] is “no binding (tested: up to 300 nM)”. In addition, in test [4], the binding result is “no binding (tested: up to 300 nM)”.

B10: COVID19_P20_F02 (scFv, V domains shown)
VH: EVQLVESGGGLVQPGGSLRLSCAASGFAFSNYGMHWIRQAPGKGLEWVSGIDGSGGTAHYADSVKGRFTISRDNSKNTLYLQMNSLRAEDTAVYYCVTNMDNSRDYFPHYFHDMDVWGQGTLVTVSS
VL: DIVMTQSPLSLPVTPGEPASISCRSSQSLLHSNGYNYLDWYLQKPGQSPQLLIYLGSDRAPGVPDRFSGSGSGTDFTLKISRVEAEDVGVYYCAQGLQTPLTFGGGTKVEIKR
Consider B10, for which, in test [1], the Kd amounted to 17.8 nM, the koff worked out at 0.00081 s⁻¹ and the kon stood at 45500 M⁻¹ s⁻¹. In addition, the binding result in test [2] is on record as “no binding (tested: up to 300 nM)”. The molecule further came in with a Kd in test [3] of less than 50 nM. Besides, the binding result in test [4] was “no binding (tested: up to 300 nM)”.

B11: COVID19_P08_B11 (scFv, V domains shown)
VH: EVQLVESGGGLVQPGGSLRLSCAASGFTFSSYGMHWIRQAPGKGLEWVSAVSASGDRTHYADSVKGRFTISRDNSKNTLYLQMNSLRAEDTAVYYCVTNLDNSRDYFPHYFHDMDVWGQGTLVTVSS
VL: DIVMTQSPLSLPVTPGEPASISCRSSQSLLHSNGYNRLAWYLQKPGQSPQLLIYLGSYRASGVPDRFSGSGSGTDFTLKISRVEAEDVGVYYCMQALQTPSFGGGTKVEIKR
As for B11, the binding result in test [2] and in test [4] was “no binding (tested: up to 300 nM)” throughout. Moreover, the equilibrium dissociation constant (Kd) in test [3] is less than 50 nM.

B12: COVID19_P20_F08 (scFv, V domains shown)
VH: EVQLVESGGGLVQPGGSLRLSCAASGFTFSSYAMHWVRQAPGKGLEWVSVISASGGNTYYADSVKGRFTISRDNSKNTLYLQMNSLRAEDTAVYYCVTNLDNSRDYFPHYFHDMDVWGQGTLVTVSS
VL: DIVMTQSPLSLPVTPGEPASISCRSSRSLLHTNGLNYIDWYLQKPGQSPQLLIYLGSNRASGVPDRFSGSGSGTDFTLKISRVEAEDVGVYYCTQALQTPISFGGGTKVEIKR
In the case of B12, the binding result in test [2] and in test [4] was “no binding (tested: up to 300 nM)” in each case. Further, the Kd in test [3] was less than 50 nM.

B13: COVID19_P08_C03 (scFv, V domains shown)
VH: EVQLVESGGGLVQPGGSLRLSCAASGFTFSSYAMHWVRQAPGKGLEWVAVISSSGRNKFYADSVKGRFTISRDNSKNTLYLQMNSLRAEDTAVYYCVTNLDNSRDYFPHYFHDMDVWGQGTLVTVSS
VL: not shown
For B13, the binding result in test [2] and in test [4] was “no binding (tested: up to 300 nM)” in each case. In test [3], this molecule yielded a Kd of less than 50 nM.

B14: COVID19_P08_F07 (scFv, V domains shown)
VH: EVQLVESGGGLVQPGGSLRLSCAASGFIFTNYALHWVRQAPGKGLEWVSAISGSGGSTHYADSVKGRFTISRDNSKNTLYLQMNSLRAEDTAVYYCVTNLDNSRDYFPHYFHDMDVWGQGTLVTVSS
VL: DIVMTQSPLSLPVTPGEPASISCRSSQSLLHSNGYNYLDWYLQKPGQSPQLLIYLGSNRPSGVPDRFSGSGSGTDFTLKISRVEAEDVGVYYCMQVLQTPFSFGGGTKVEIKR
Consider B14, for which the binding result in test [2] and in test [4] was “no binding (tested: up to 300 nM)” each time. The same molecule had a Kd in test [3] of less than 50 nM.

B15: COVID19_P07_F11 (scFv, V domains shown)
VH: EVQLVESGGGLVQPGGSLRLSCAASGFTFSSYGMHWIRQAPGKGLEWVSAVSASGDRTHYADSVKGRFTISRDNSKNTLYLQMNSLRAEDTAVYYCVTNLDNSRDYFPHYFHDMDVWGQGTLVTVSS
VL: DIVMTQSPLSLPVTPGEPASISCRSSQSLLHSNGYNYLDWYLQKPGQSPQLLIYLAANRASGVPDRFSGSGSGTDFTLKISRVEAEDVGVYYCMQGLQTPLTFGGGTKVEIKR
Turning to B15, the binding result in test [2] and in test [4] was “no binding (tested: up to 300 nM)” in each case. In test [3], the Kd is less than 50 nM.
